Assay results as given in patent US20210139548A1 (published 2021).
Blank lines part the entries; values can stand above or below the binder they belong to. *1 amine or outer side, *2 acyl side, *3 side chain or, on linkers, in order; H or OH if unused. Side-chain parts run from the residue outwards. The star is where a group is joined. C18 diacid = O=C(O)CCCCCCCCCCCCCCCCC(=O)*; γGlu = O=C(O)[C@H](CCC(=O)[*:2])N[*:1]; Isovaleryl = CC(C)CC(=O)*; AEEA = NCCOCCOCC(=O)O

Key:
[1] = target: T1, human neuropeptide Y2 receptor (human, UniProt P49146 1-381); assay: cell-based or functional assay
T1 sequence (looked up): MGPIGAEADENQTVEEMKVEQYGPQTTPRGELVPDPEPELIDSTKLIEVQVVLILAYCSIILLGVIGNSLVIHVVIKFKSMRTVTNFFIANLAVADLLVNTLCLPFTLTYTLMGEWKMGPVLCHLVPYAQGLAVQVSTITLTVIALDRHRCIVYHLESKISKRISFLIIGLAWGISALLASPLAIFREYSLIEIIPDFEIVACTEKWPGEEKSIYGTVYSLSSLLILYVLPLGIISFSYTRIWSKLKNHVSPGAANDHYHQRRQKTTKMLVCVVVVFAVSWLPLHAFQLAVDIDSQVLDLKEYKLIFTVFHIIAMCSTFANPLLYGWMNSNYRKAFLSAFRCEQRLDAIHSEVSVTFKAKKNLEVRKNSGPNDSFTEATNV

human NPY1 receptor = target: T2, human NPY1 receptor (human, UniProt P25929 1-384); assay: cell-based or functional assay
T2 sequence (looked up): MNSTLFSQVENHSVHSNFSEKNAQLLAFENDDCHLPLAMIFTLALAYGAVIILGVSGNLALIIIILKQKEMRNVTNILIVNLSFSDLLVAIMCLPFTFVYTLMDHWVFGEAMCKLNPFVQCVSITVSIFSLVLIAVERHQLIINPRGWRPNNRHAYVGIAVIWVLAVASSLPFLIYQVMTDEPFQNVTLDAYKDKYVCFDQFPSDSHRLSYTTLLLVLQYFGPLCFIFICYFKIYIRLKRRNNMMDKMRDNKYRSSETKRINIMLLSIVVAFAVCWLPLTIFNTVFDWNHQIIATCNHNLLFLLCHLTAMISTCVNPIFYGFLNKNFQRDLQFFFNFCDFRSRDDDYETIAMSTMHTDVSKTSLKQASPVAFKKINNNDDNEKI

human NPY4 receptor = human NPY4 receptor (human, UniProt P50391 1-375); assay: cell-based or functional assay
human NPY5 receptor = target: T3, human NPY5 receptor (human, UniProt Q15761 1-445); assay: cell-based or functional assay
T3 sequence (looked up): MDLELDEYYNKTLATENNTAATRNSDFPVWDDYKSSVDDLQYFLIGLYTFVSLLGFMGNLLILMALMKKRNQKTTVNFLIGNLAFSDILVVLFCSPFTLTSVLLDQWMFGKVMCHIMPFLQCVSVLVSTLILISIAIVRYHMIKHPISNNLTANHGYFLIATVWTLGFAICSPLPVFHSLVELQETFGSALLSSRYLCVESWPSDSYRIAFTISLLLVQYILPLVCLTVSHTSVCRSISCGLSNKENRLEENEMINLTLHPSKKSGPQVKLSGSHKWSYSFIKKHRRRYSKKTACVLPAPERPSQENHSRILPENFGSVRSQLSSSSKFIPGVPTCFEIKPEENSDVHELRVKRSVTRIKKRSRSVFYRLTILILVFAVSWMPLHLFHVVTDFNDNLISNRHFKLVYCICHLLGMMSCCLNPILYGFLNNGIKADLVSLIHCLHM

[2] = target: T1, human neuropeptide Y2 receptor; assay: radioligand competition (125I-PYY(1-36)), hNPY2R membranes
Outline: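 Commercial human Y2 receptor membranes (0.5 μg protein/well) were incubated with peptide for 2 h at room temperature in 50 mM HEPES, 5 mM MgCl₂, 1 mM CaCl₂, pH 7.4, with 0.2% ovalbumin. Bound radioligand was separated on PEI-soaked GF/C filters and counted by scintillation, and IC₅₀ came from nonlinear sigmoidal regression.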

Sequence of human NPY4 receptor (P50391 whole entry): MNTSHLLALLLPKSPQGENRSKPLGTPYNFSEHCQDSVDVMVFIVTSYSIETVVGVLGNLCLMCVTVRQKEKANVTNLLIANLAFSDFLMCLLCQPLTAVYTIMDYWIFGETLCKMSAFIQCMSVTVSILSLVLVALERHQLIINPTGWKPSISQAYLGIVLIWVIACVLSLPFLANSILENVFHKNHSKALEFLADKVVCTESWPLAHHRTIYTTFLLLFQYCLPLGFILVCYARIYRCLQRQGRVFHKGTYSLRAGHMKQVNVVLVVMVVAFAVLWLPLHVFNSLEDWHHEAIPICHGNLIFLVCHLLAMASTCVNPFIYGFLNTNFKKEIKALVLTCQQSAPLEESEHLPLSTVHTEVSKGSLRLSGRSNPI

B3: Compound 105 (peptide)
peptide: Isovaleryl-APEK([AEEA-AEEA-γGlu-C18 diacid])PEEDAEPEELQEYYVSLRHYYNWLTRQRY-NH2
SMILES: CC(C)CC(=O)N[C@@H](C)C(=O)N1CCC[C@H]1C(=O)N[C@@H](CCC(=O)O)C(=O)N[C@@H](CCCCNC(=O)COCCOCCNC(=O)COCCOCCNC(=O)CC[C@H](NC(=O)CCCCCCCCCCCCCCCCC(=O)O)C(=O)O)C(=O)N1CCC[C@H]1C(=O)N[C@@H](CCC(=O)O)C(=O)N[C@@H](CCC(=O)O)C(=O)N[C@@H](CC(=O)O)C(=O)N[C@@H](C)C(=O)N[C@@H](CCC(=O)O)C(=O)N1CCC[C@H]1C(=O)N[C@@H](CCC(=O)O)C(=O)N[C@@H](CCC(=O)O)C(=O)N[C@@H](CC(C)C)C(=O)N[C@@H](CCC(N)=O)C(=O)N[C@@H](CCC(=O)O)C(=O)N[C@@H](Cc1ccc(O)cc1)C(=O)N[C@@H](Cc1ccc(O)cc1)C(=O)N[C@H](C(=O)N[C@@H](CO)C(=O)N[C@@H](CC(C)C)C(=O)N[C@@H](CCCNC(=N)N)C(=O)N[C@@H](Cc1c[nH]cn1)C(=O)N[C@@H](Cc1ccc(O)cc1)C(=O)N[C@@H](Cc1ccc(O)cc1)C(=O)N[C@@H](CC(N)=O)C(=O)N[C@@H](Cc1c[nH]c2ccccc12)C(=O)N[C@@H](CC(C)C)C(=O)N[C@H](C(=O)N[C@@H](CCCNC(=N)N)C(=O)N[C@@H](CCC(N)=O)C(=O)N[C@@H](CCCNC(=N)N)C(=O)N[C@@H](Cc1ccc(O)cc1)C(N)=O)[C@@H](C)O)C(C)C
- EC50 (HTRF cAMP Gi assay) [1]: 0.284 nM
- EC50 (HTRF cAMP Gi assay) (human NPY1 receptor): > 5000 nM
- EC50 (HTRF cAMP Gi assay) (human NPY4 receptor): > 5000 nM
- EC50 (HTRF cAMP Gi assay) (human NPY5 receptor): > 5000 nM
- Ki [2]: 6.94 nM

Binder: Isovaleryl-APEK([AEEA-AEEA-γGlu-C18 diacid])PEEDATPEELQKYYVSLRHYYNWLTRQRY-NH2 [Compound 231]
- EC50 (HTRF cAMP Gi assay) [1]: 0.107 nM
- EC50 (HTRF cAMP Gi assay) (human NPY1 receptor): > 5000 nM
- EC50 (HTRF cAMP Gi assay) (human NPY4 receptor): > 5000 nM
- EC50 (HTRF cAMP Gi assay) (human NPY5 receptor): > 5000 nM
- Ki [2]: 1.96 nM

B4: Compound 188 (peptide)
peptide: Isovaleryl-APEK([AEEA-AEEA-γGlu-C18 diacid])PEEDAEPEELQRYYVSLRHYYNWLTRQRY-NH2
SMILES: CC(C)CC(=O)N[C@@H](C)C(=O)N1CCC[C@H]1C(=O)N[C@@H](CCC(=O)O)C(=O)N[C@@H](CCCCNC(=O)COCCOCCNC(=O)COCCOCCNC(=O)CC[C@H](NC(=O)CCCCCCCCCCCCCCCCC(=O)O)C(=O)O)C(=O)N1CCC[C@H]1C(=O)N[C@@H](CCC(=O)O)C(=O)N[C@@H](CCC(=O)O)C(=O)N[C@@H](CC(=O)O)C(=O)N[C@@H](C)C(=O)N[C@@H](CCC(=O)O)C(=O)N1CCC[C@H]1C(=O)N[C@@H](CCC(=O)O)C(=O)N[C@@H](CCC(=O)O)C(=O)N[C@@H](CC(C)C)C(=O)N[C@@H](CCC(N)=O)C(=O)N[C@@H](CCCNC(=N)N)C(=O)N[C@@H](Cc1ccc(O)cc1)C(=O)N[C@@H](Cc1ccc(O)cc1)C(=O)N[C@H](C(=O)N[C@@H](CO)C(=O)N[C@@H](CC(C)C)C(=O)N[C@@H](CCCNC(=N)N)C(=O)N[C@@H](Cc1c[nH]cn1)C(=O)N[C@@H](Cc1ccc(O)cc1)C(=O)N[C@@H](Cc1ccc(O)cc1)C(=O)N[C@@H](CC(N)=O)C(=O)N[C@@H](Cc1c[nH]c2ccccc12)C(=O)N[C@@H](CC(C)C)C(=O)N[C@H](C(=O)N[C@@H](CCCNC(=N)N)C(=O)N[C@@H](CCC(N)=O)C(=O)N[C@@H](CCCNC(=N)N)C(=O)N[C@@H](Cc1ccc(O)cc1)C(N)=O)[C@@H](C)O)C(C)C
- EC50 (HTRF cAMP Gi assay) [1]: 0.106 nM
- EC50 (HTRF cAMP Gi assay) (human NPY1 receptor): > 5000 nM
- EC50 (HTRF cAMP Gi assay) (human NPY4 receptor): > 5000 nM
- EC50 (HTRF cAMP Gi assay) (human NPY5 receptor): > 5000 nM
- Ki [2]: 3.09 nM

Results, then the binder that gave them:

- EC50 (HTRF cAMP Gi assay) [1]: 0.152 nM
- EC50 (HTRF cAMP Gi assay) (human NPY1 receptor): > 5000 nM
- EC50 (HTRF cAMP Gi assay) (human NPY4 receptor): > 5000 nM
- EC50 (HTRF cAMP Gi assay) (human NPY5 receptor): > 5000 nM
- Ki [2]: 3.3 nM
B1: Compound 46 (peptide)
peptide: Isovaleryl-APEK([AEEA-AEEA-γGlu-C18 diacid])PEEEASPEELQRYYVSLRHYYNWLTRQRY-NH2
SMILES: CC(C)CC(=O)N[C@@H](C)C(=O)N1CCC[C@H]1C(=O)N[C@@H](CCC(=O)O)C(=O)N[C@@H](CCCCNC(=O)COCCOCCNC(=O)COCCOCCNC(=O)CC[C@H](NC(=O)CCCCCCCCCCCCCCCCC(=O)O)C(=O)O)C(=O)N1CCC[C@H]1C(=O)N[C@@H](CCC(=O)O)C(=O)N[C@@H](CCC(=O)O)C(=O)N[C@@H](CCC(=O)O)C(=O)N[C@@H](C)C(=O)N[C@@H](CO)C(=O)N1CCC[C@H]1C(=O)N[C@@H](CCC(=O)O)C(=O)N[C@@H](CCC(=O)O)C(=O)N[C@@H](CC(C)C)C(=O)N[C@@H](CCC(N)=O)C(=O)N[C@@H](CCCNC(=N)N)C(=O)N[C@@H](Cc1ccc(O)cc1)C(=O)N[C@@H](Cc1ccc(O)cc1)C(=O)N[C@H](C(=O)N[C@@H](CO)C(=O)N[C@@H](CC(C)C)C(=O)N[C@@H](CCCNC(=N)N)C(=O)N[C@@H](Cc1c[nH]cn1)C(=O)N[C@@H](Cc1ccc(O)cc1)C(=O)N[C@@H](Cc1ccc(O)cc1)C(=O)N[C@@H](CC(N)=O)C(=O)N[C@@H](Cc1c[nH]c2ccccc12)C(=O)N[C@@H](CC(C)C)C(=O)N[C@H](C(=O)N[C@@H](CCCNC(=N)N)C(=O)N[C@@H](CCC(N)=O)C(=O)N[C@@H](CCCNC(=N)N)C(=O)N[C@@H](Cc1ccc(O)cc1)C(N)=O)[C@@H](C)O)C(C)C

- EC50 (HTRF cAMP Gi assay) [1]: 0.235 nM
- EC50 (HTRF cAMP Gi assay) (human NPY1 receptor): > 5000 nM
- EC50 (HTRF cAMP Gi assay) (human NPY4 receptor): > 5000 nM
- EC50 (HTRF cAMP Gi assay) (human NPY5 receptor): > 5000 nM
- Ki [2]: 4.33 nM
B2: Compound 164 (peptide)
peptide: Isovaleryl-APEK([AEEA-AEEA-γGlu-C18 diacid])PEEDASEEELQEYYVSLRHYYNWLTRQRY-NH2
SMILES: CC(C)CC(=O)N[C@@H](C)C(=O)N1CCC[C@H]1C(=O)N[C@@H](CCC(=O)O)C(=O)N[C@@H](CCCCNC(=O)COCCOCCNC(=O)COCCOCCNC(=O)CC[C@H](NC(=O)CCCCCCCCCCCCCCCCC(=O)O)C(=O)O)C(=O)N1CCC[C@H]1C(=O)N[C@@H](CCC(=O)O)C(=O)N[C@@H](CCC(=O)O)C(=O)N[C@@H](CC(=O)O)C(=O)N[C@@H](C)C(=O)N[C@@H](CO)C(=O)N[C@@H](CCC(=O)O)C(=O)N[C@@H](CCC(=O)O)C(=O)N[C@@H](CCC(=O)O)C(=O)N[C@@H](CC(C)C)C(=O)N[C@@H](CCC(N)=O)C(=O)N[C@@H](CCC(=O)O)C(=O)N[C@@H](Cc1ccc(O)cc1)C(=O)N[C@@H](Cc1ccc(O)cc1)C(=O)N[C@H](C(=O)N[C@@H](CO)C(=O)N[C@@H](CC(C)C)C(=O)N[C@@H](CCCNC(=N)N)C(=O)N[C@@H](Cc1c[nH]cn1)C(=O)N[C@@H](Cc1ccc(O)cc1)C(=O)N[C@@H](Cc1ccc(O)cc1)C(=O)N[C@@H](CC(N)=O)C(=O)N[C@@H](Cc1c[nH]c2ccccc12)C(=O)N[C@@H](CC(C)C)C(=O)N[C@H](C(=O)N[C@@H](CCCNC(=N)N)C(=O)N[C@@H](CCC(N)=O)C(=O)N[C@@H](CCCNC(=N)N)C(=O)N[C@@H](Cc1ccc(O)cc1)C(N)=O)[C@@H](C)O)C(C)C
